Measurements: patent US20090280138A1 (OXFORD BIOMEDICA UK, published 2009)

How the values were obtained:
Experiment in all cases: iTopia, multiparametric iScore
[1] = molecular target: T1, MHC class I allele B*0702 monomer (human, biotinylated, bound to streptavidin-coated plate)
T1 construct: also called B7; HLA-B7
Protocol: (§1) The 9 mers were tested for Peptide Binding, Off Rate and Affinity using iTopia Epitope Discovery System in accordance with the manufacturer's instructions. Briefly, 96 well microtitre plates coated with MHC molecules representing different MHC alleles are used to identify candidate peptides. […] Determinations are performed in duplicate using an ELISA plate reader and included allele specific positive controls.
(§2) Finally, multiparametric analysis is performed on the results from these assays and an iScore is generated. The iScore represents a measure of the overall quality of peptide-MHC binding, enabling candidate peptides to be ranked in order of binding quality and allowing rational prioritisation of peptides for functional cellular follow-up studies.

[2] = molecular target: T2, MHC class I allele A*0101 monomer (human, biotinylated, bound to streptavidin-coated plate)
T2 construct: placeholder peptide and b2M removed, then reconstituted with test peptide and fresh b2M; also called A1; HLA-A1
Protocol: as §1, §2

[3] = molecular target: T3, MHC class I allele A*0301 monomer (human, biotinylated, bound to streptavidin-coated plate)
T3 construct: also called A3; HLA-A3
Protocol: as §1, §2

[4] = molecular target: T4, MHC class I allele A*0201 monomer (human, biotinylated, bound to streptavidin-coated plate)
T4 construct: also called A2; HLA-A2
Protocol: as §1, §2

B1: 5T4 9-mer peptide 165 (peptide)
peptide: MRNRVLLEL
[1]
  iScore: 0
[2]
  iScore: 0
[3]
  iScore: 0
[4]
  iScore: 0

B2: 5T4 9-mer peptide 141 (peptide)
peptide: LQGLPHIRV
[1]
  iScore: 0
[2]
  iScore: 0
[3]
  iScore: 0
[4]
  iScore: 0.2

B3: 5T4 9-mer peptide 171 (peptide)
peptide: DLDCDPILP
[1]
  iScore: 0
[2]
  iScore: 0
[3]
  iScore: 0
[4]
  iScore: 0

B4: 5T4 9-mer peptide 145 (peptide)
peptide: VFLDNNPWV
[1]
  iScore: 0
[2]
  iScore: 0
[3]
  iScore: 0
[4]
  iScore: 0.239

B5: 5T4 9-mer peptide 139 (peptide)
peptide: TLAELQGLP
[1]
  iScore: 0
[2]
  iScore: 0
[3]
  iScore: 0
[4]
  iScore: 0.083

B6: 5T4 9-mer peptide 147 (peptide)
peptide: NNPWVCDCH
[1]
  iScore: 0
[2]
  iScore: 0
[3]
  iScore: 0.051
[4]
  iScore: 0

B7: 5T4 9-mer peptide 159 (peptide)
peptide: GKDRLTCAY
[1]
  iScore: 0
[2]
  iScore: 0
[3]
  iScore: 0
[4]
  iScore: 0

B8: 5T4 9-mer peptide 158 (peptide)
peptide: VQGKDRLTC
[1]
  iScore: 0
[2]
  iScore: 0
[3]
  iScore: 0
[4]
  iScore: 0.074

B9: 5T4 9-mer peptide 157 (peptide)
peptide: EVVQGKDRL
[1]
  iScore: 0
[2]
  iScore: 0
[3]
  iScore: 0
[4]
  iScore: 0.139

B10: 5T4 9-mer peptide 180 (peptide)
peptide: LGIVLALIG
[1]
  iScore: 0
[2]
  iScore: 0
[3]
  iScore: 0
[4]
  iScore: 0

B11: 5T4 9-mer peptide 148 (peptide)
peptide: PWVCDCHMA
[1]
  iScore: 0
[2]
  iScore: 0
[3]
  iScore: 0
[4]
  iScore: 0

B12: 5T4 9-mer peptide 140 (peptide)
peptide: AELQGLPHI
[1]
  iScore: 0
[2]
  iScore: 0
[3]
  iScore: 0
[4]
  iScore: 0

B13: 5T4 9-mer peptide 143 (peptide)
peptide: PHIRVFLDN
[1]
  iScore: 0
[2]
  iScore: 0
[3]
  iScore: 0
[4]
  iScore: 0

B14: 5T4 9-mer peptide 146 (peptide)
peptide: LDNNPWVCD
[1]
  iScore: 0
[2]
  iScore: 0
[3]
  iScore: 0
[4]
  iScore: 0

B15: 5T4 9-mer peptide 155 (peptide)
peptide: LKETEVVQG
[1]
  iScore: 0
[2]
  iScore: 0
[3]
  iScore: 0
[4]
  iScore: 0

B16: 5T4 9-mer peptide 169 (peptide)
peptide: LNSADLDCD
[1]
  iScore: 0
[2]
  iScore: 0
[3]
  iScore: 0
[4]
  iScore: 0

B17: 5T4 9-mer peptide 154 (peptide)
peptide: TWLKETEVV
[1]
  iScore: 0
[2]
  iScore: 0
[3]
  iScore: 0
[4]
  iScore: 0.184

B18: 5T4 9-mer peptide 173 (peptide)
peptide: DPILPPSLQ
[1]
  iScore: 0
[2]
  iScore: 0
[3]
  iScore: 0
[4]
  iScore: 0

B19: 5T4 9-mer peptide 166 (peptide)
peptide: NRVLLELNS
[1]
  iScore: 0
[2]
  iScore: 0
[3]
  iScore: 0
[4]
  iScore: 0.031

B20: 5T4 9-mer peptide 178 (peptide)
peptide: SYVFLGIVL
[1]
  iScore: 0.045
[2]
  iScore: 0
[3]
  iScore: 0
[4]
  iScore: 0.118

B21: 5T4 9-mer peptide 175 (peptide)
peptide: PPSLQTSYV
[1]
  iScore: 0
[2]
  iScore: 0
[3]
  iScore: 0
[4]
  iScore: 0.145

B22: 5T4 9-mer peptide 164 (peptide)
peptide: EKMRNRVLL
[1]
  iScore: 0
[2]
  iScore: 0
[3]
  iScore: 0
[4]
  iScore: 0.096

B23: 5T4 9-mer peptide 177 (peptide)
peptide: QTSYVFLGI
[1]
  iScore: 0
[2]
  iScore: 0.027
[3]
  iScore: 0
[4]
  iScore: 0.127

B24: 5T4 9-mer peptide 144 (peptide)
peptide: IRVFLDNNP
[1]
  iScore: 0
[2]
  iScore: 0
[3]
  iScore: 0
[4]
  iScore: 0

B25: 5T4 9-mer peptide 172 (peptide)
peptide: DCDPILPPS
[1]
  iScore: 0
[2]
  iScore: 0
[3]
  iScore: 0
[4]
  iScore: 0

B26: 5T4 9-mer peptide 167 (peptide)
peptide: VLLELNSAD
[1]
  iScore: 0
[2]
  iScore: 0
[3]
  iScore: 0
[4]
  iScore: 0.105

B27: 5T4 9-mer peptide 152 (peptide)
peptide: ADMVTWLKE
[1]
  iScore: 0
[2]
  iScore: 0
[3]
  iScore: 0
[4]
  iScore: 0

B28: 5T4 9-mer peptide 156 (peptide)
peptide: ETEVVQGKD
[1]
  iScore: 0
[2]
  iScore: 0
[3]
  iScore: 0
[4]
  iScore: 0

B29: 5T4 9-mer peptide 149 (peptide)
peptide: VCDCHMADM
[1]
  iScore: 0
[2]
  iScore: 0
[3]
  iScore: 0
[4]
  iScore: 0.061

B30: 5T4 9-mer peptide 168 (peptide)
peptide: LELNSADLD
[1]
  iScore: 0
[2]
  iScore: 0
[3]
  iScore: 0
[4]
  iScore: 0

B31: 5T4 9-mer peptide 170 (peptide)
peptide: SADLDCDPI
[1]
  iScore: 0
[2]
  iScore: 0
[3]
  iScore: 0
[4]
  iScore: 0

B32: 5T4 9-mer peptide 160 (peptide)
peptide: DRLTCAYPE
[1]
  iScore: 0
[2]
  iScore: 0
[3]
  iScore: 0
[4]
  iScore: 0

B33: 5T4 9-mer peptide 184 (peptide)
peptide: GAIFLLVLY
[1]
  iScore: 0
[2]
  iScore: 0
[3]
  iScore: 0
[4]
  iScore: 0

B34: 5T4 9-mer peptide 162 (peptide)
peptide: CAYPEKMRN
[1]
  iScore: 0
[2]
  iScore: 0
[3]
  iScore: 0
[4]
  iScore: 0

B35: 5T4 9-mer peptide 150 (peptide)
peptide: DCHMADMVT
[1]
  iScore: 0
[2]
  iScore: 0
[3]
  iScore: 0
[4]
  iScore: 0

B36: 5T4 9-mer peptide 153 (peptide)
peptide: MVTWLKETE
[1]
  iScore: 0
[2]
  iScore: 0
[3]
  iScore: 0
[4]
  iScore: 0.051
